Experiments:
[1] = target: antigen of the 'Antigen binding ELISA' (not given); experiment: Antigen binding ELISA of stability sample; F15 without methionine; initial (same value as Table 37)
[2] = target: antigen of the 'Antigen binding ELISA' (not given); experiment: Antigen binding ELISA of stability sample; F0; 5 °C 2 months (same value as Table 37)
[3] = target: antigen of the 'Antigen binding ELISA' (not given); experiment: Antigen binding ELISA of stability sample; F18; 25 °C 1 month
[4] = target: antigen of the 'Antigen binding ELISA' (not given); experiment: Antigen binding ELISA of stressed sample; F15; 3 freeze-thaw cycles
[5] = target: antigen of the 'Antigen binding ELISA' (not given); experiment: Antigen binding ELISA of stressed sample; F18; initial (repeated from Table 41A)
[6] = target: antigen of the 'Antigen binding ELISA' (not given); experiment: Antigen binding ELISA of stressed sample; F15; initial (repeated from Table 37)
[7] = target: antigen of the 'Antigen binding ELISA' (not given); experiment: Antigen binding ELISA of stability sample; F0; 25 °C 2 months
[8] = target: antigen of the 'Antigen binding ELISA' (not given); experiment: Antigen binding ELISA of stability sample; F18 with 10 mM methionine; initial
[9] = target: antigen of the 'Antigen binding ELISA' (not given); experiment: Antigen binding ELISA of stability sample; F18 with methionine; initial (repeated from Table 41A)
[10] = target: antigen of the 'Antigen binding ELISA' (not given); experiment: Antigen binding ELISA of stability sample; F18 with methionine; 5 °C 2 months
[11] = target: antigen of the 'Antigen binding ELISA' (not given); experiment: Antigen binding ELISA of stability sample; F18; 25 °C 2 months
[12] = target: antigen of the 'Antigen binding ELISA' (not given); experiment: Antigen binding ELISA of stressed sample; F18; 3 freeze-thaw cycles
[13] = target: antigen of the 'Antigen binding ELISA' (not given); experiment: Antigen binding ELISA of stability sample; F15 without methionine; initial
[14] = target: antigen of the 'Antigen binding ELISA' (not given); experiment: Antigen binding ELISA of stressed sample; F18; 25 °C 1000 lx 7 days
[15] = target: antigen of the 'Antigen binding ELISA' (not given); experiment: Antigen binding ELISA of stability sample; F0; 25 °C 1 month
[16] = target: antigen of the 'Antigen binding ELISA' (not given); experiment: Antigen binding ELISA of stressed sample; F15; 25 °C dark 7 days
[17] = target: antigen of the 'Antigen binding ELISA' (not given); experiment: Antigen binding ELISA of stability sample; F15 without methionine; 5 °C 2 months (same value as Table 37)
[18] = target: antigen of the 'Antigen binding ELISA' (not given); experiment: Antigen binding ELISA of stability sample; F15; 25 °C 2 months
[19] = target: antigen of the 'Antigen binding ELISA' (not given); experiment: Antigen binding ELISA of stressed sample; F15; 25 °C 1000 lx 7 days
[20] = target: antigen of the 'Antigen binding ELISA' (not given); experiment: Antigen binding ELISA of stressed sample; F18; 25 °C dark 7 days
[21] = target: antigen of the 'Antigen binding ELISA' (not given); experiment: Antigen binding ELISA of stability sample; F0; initial (repeated from Table 37)
[22] = target: antigen of the 'Antigen binding ELISA' (not given); experiment: Antigen binding ELISA of stability sample; F15; 25 °C 1 month

BAN2401 (antibody)
ELISA (Antigen binding ELISA), report result [1]: 102%
ELISA (Antigen binding ELISA), report result [2]: 103%
ELISA (Antigen binding ELISA), report result [3]: 97%
ELISA (Antigen binding ELISA), report result [4]: 108%
ELISA (Antigen binding ELISA), report result [5]: 108%
ELISA (Antigen binding ELISA), report result [6]: 102%
ELISA (Antigen binding ELISA), report result [7]: 91.8%
ELISA (Antigen binding ELISA), report result [8]: 108%
ELISA (Antigen binding ELISA), report result [9]: 108%
ELISA (Antigen binding ELISA), report result [10]: 118%
ELISA (Antigen binding ELISA), report result [11]: 97.8%
ELISA (Antigen binding ELISA), report result [12]: 106%
ELISA (Antigen binding ELISA), report result [13]: 102%
ELISA (Antigen binding ELISA), report result [14]: 109%
ELISA (Antigen binding ELISA), report result [15]: 103%
ELISA (Antigen binding ELISA), report result [16]: 107%
ELISA (Antigen binding ELISA), report result [17]: 123%
ELISA (Antigen binding ELISA), report result [18]: 96.9%
ELISA (Antigen binding ELISA), report result [19]: 101%
ELISA (Antigen binding ELISA), report result [20]: 105%
ELISA (Antigen binding ELISA), report result [21]: 101%
ELISA (Antigen binding ELISA), report result [22]: 104%
